Series [1] can be described thus: activity (detoxification) assay of the purified his-tagged enzyme with ergotamine. Format: biochemical. The settings on record: FIG. 1; 50 mM sodium phosphate buffer pH 7.0, 25° C.; enzyme 0.079 μg/ml, ergotamine 5 mg/kg. The procedure:
(§1) The gene with the sequence ID No. 2, which codes for an α/β-hydrolase comprising a catalytic triad of S94-D234-H270, was cloned into the expression vector pET28a(+) by applying standard methods, transformed and expressed in E. coli. Following the expression in E. coli BL21(DE3), the his-tagged enzyme was purified by affinity chromatography. The enzyme concentration was determined using a Pierce BSA Protein Assay Kit, and the enzyme was used in activity assays. The assays were carried out in 50 mM sodium phosphate buffer (pH 7.0) at 25° C.
In the context of the detoxification assays, enzyme concentrations of 0.079 μg/ml and ergotamine concentrations of 5 mg/kg were used.
The samples were analyzed using HPLC-FLD or HPLC-MS/MS, each by analytically determining the respective concentration of the sum of the respective epimers. Simultaneously with the determination of the ergopeptine concentration during the enzymatic reaction, the formation of the ergo hydroxy acid (metabolite 1) and of the ergoproline cyclodipeptide (metabolite 2) was observed. During the continued reaction course, the conversion of metabolite 1 to ergine was detected.

The nature of series [2]: assay for reacting the six ergopeptines and their isomeric forms. It is filed as biochemical. To be noted: 1.58 μg/ml enzyme, concentrations equimolar to 10 mg/kg ergotamine; pH 7.0, 25° C.; FIG. 2. The procedure:
as §1
A further assay for reacting the six ergopeptines, namely ergotamine, ergovaline, ergocomine, ergocristine, ergocryptine or ergosine, and their respective isomeric forms, namely ergotaminine, ergovalinine, ergocominine, ergocristinine, ergocryptinine and ergosinine, used 1.58 μg/ml of the enzyme with sequence ID No. 1 and 10 mg/kg ergotamine, or the equimolar (summation) concentrations of the remaining ergopeptines or their epimers.
The samples were analyzed using HPLC-FLD or HPLC-MS/MS, each by analytically determining the respective concentration of the sum of the respective epimers. […] During the continued reaction course, the conversion of metabolite 1 to ergine was detected.

Series [3] in a line: temperature range of the activity. Format: biochemical. The settings on record: 0.1 μg/ml enzyme, 5 mg/kg ergotamine, Teorell-Stenhagen universal buffer pH 9.0.
The nature of series [4]: temperature stability of the enzyme. Format: biochemical. How it is done:
In order to determine the temperature stability, the enzyme was incubated for 1 h at varying temperatures ranging from 10° C. to 60° C. After this, the enzyme solutions were incubated at concentrations of 0.1 μg/ml in Teorell-Stenhagen universal buffer (pH 7.0) with 0.1 mg/ml BSA and 5 mg/kg ergotamine at 25° C.

The nature of series [5]: pH stability of the enzyme. Format: biochemical. The settings on record: 1 h at 25° C. at pH 2 to pH 12; then assay at pH 7.0, 25° C. How it is done: In order to determine the pH stability, the enzyme was incubated for 1 h at 25° C. at varying pH values ranging from pH 2 to pH 12. After this, the enzyme solutions in concentrations of 0.1 μg/ml were incubated with 0.1 mg/ml BSA and 5 mg/kg ergotamine in Teorell-Stenhagen universal buffer (pH 7.0) at 25° C.

Series [6] in a line: degradation assay in the in-vitro rumen model. The settings on record: 1 μg/ml enzyme, 5 mg/kg ergotamine, rumen juice diluted 1:1, 39° C., HPLC/ESI-MS/MS.

B1: enzyme with the sequence ID No. 1: α/β-hydrolase with catalytic triad S94-D234-H270, coded by gene sequence ID No. 2, cleaving ergopeptines in the cyclol ring (protein, listed as Rhodococcus erythropolis)
chain: MPLVVLSDGTRIHVETSGNGVPALVPCVGSSVPFERTFGEELKTDIQYNFVEVRGTSRSDGEPSEVASLDRISDDLEEVRQLLGLDKVIALGQSRNGMMAAHYAQKYPNSVLHLVTIGTPASLSMIKNEEYWNAFADDERKRLRAENDAAMEREGLLDLDNLNTAEKIVRLFDLEGAVYFYDPTTLMNDWWDASLLSRTFEVVMASNMGWADFDLVQTLQNSDVPAFVTFGKYDFMVSPLPKPGNPVDGKAGLFEDIPGVRVEVFEKSGHFPYWEQEQEFARRYRDWVATLPESAVRAAEAMTPNGIRQ
Regarding B1, in series [1], the “time to almost complete degradation of ergotamine to ergine” value is no more than 4 h. Moreover, the “reaction courses of all other ergopeptines and their isomeric forms relative to ergotamine” value in series [2] is on record as “comparable”. Besides, in series [3], the “temperature optimum of activity, based on the starting speed” value is 35 °C. Besides, the “temperature up to which the enzyme is stable” value in series [4] (1 h preincubation at 10° C. to 60° C., then 0.1 μg/ml enzyme, pH 7.0, 0.1 mg/ml BSA, 5 mg/kg ergotamine, 25° C.) was no more than 30 °C. The “activity after incubation at 40° C.” value in series [4] (1 h preincubation at 40° C., then assay at pH 7.0, 25° C.) was “still displaying some activity”. Further, the “activity outside the pH 6 to pH 9 range after preincubation” value in series [5] is “strongly decreasing activity”. Moreover, in series [6], the “conversion of ergotamine in the rumen model” value was “completely converted into ergine and lysergic acid”.
